What was measured:
Nectin-like-2 = target: T1, Nectin-like-2 (UniProt Q9BY67 45-374, limits assumed); assay: ELISA, coated antigen
T1 construct: Bought recombinant protein; also called CADM1; IgSF4
T1 sequence (looked up): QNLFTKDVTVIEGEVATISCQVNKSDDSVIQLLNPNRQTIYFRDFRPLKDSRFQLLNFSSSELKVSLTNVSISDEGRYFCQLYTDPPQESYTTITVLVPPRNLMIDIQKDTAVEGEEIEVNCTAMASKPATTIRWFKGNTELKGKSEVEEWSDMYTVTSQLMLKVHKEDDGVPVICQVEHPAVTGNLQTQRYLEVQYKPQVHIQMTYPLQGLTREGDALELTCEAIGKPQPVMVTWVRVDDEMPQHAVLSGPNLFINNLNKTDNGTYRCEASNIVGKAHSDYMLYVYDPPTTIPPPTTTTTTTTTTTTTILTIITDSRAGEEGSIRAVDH

Nectin-3 = target: T2, Nectin-3 (UniProt Q9NQS3 58-404, limits assumed); assay: ELISA, coated antigen
T2 construct: Bought recombinant protein; also called CD113; PVRL-3
T2 sequence (Q9NQS3 58-404 limits assumed): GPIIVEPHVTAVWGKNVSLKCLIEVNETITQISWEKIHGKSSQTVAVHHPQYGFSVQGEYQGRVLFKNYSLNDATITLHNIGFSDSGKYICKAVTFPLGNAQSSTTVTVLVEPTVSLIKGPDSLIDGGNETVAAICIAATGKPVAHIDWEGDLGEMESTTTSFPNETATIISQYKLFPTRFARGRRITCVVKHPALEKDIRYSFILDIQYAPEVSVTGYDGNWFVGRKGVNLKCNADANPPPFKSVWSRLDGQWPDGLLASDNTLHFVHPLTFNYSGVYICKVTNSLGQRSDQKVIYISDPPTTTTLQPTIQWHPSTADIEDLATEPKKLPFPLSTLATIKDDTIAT

Binder | binding result (Nectin-like-2) | binding result (Nectin-3)
Antibody R012 (antibody, V domains shown, Rabbit monoclonal antibody from phage display; also called Nectin-4 rabbit monoclonal antibody R012; rabbit antibody R012) VH: SKSVEESGGRLVTPGTPLTLTCTVSGFSLSTYAMSWVRQAPGKGLEYIGIISGRGTTYYASWLKGRFTISKTSTTVDLKITSPTTEDTATYFCARDAGISDVYTGYFNLWGQGTLVTVSS VL: QPVLAQLPSASAALGASAKLTCTLSSAHRTYTIAWYQQQQGEAPRYLMMLKSDGSYTKGTGVPDRFSGSSSGADRYLIISSVQAADEADYYCGADDSGGYVFGGGTQLTVTG | no binding (tested: 10000 ng/ml) | no binding (tested: 10000 ng/ml)
Antibody R036 (antibody, V domains shown, Rabbit monoclonal antibody from phage display; also called Nectin-4 rabbit monoclonal antibody R036; rabbit antibody R036) VH: SQSVEESGGRLVTPGTPLTLTCTVSGFSLSSYAMSWVRQAPGKGLEYIGIIGGRGTTYYAIWAKGRFTISKTSTTVDLKITSPTTEDTATYFCARDAGTTYVGTTYVATGYFNLWGQGTLVTVSS VL: QPVLTQPPSASAALGASAKLTCTLSSAHKTYTIAWYQQQQGEAPRYLMILKSDGSYTRGTGVPDRFSGSSSGADRYLIISSVQADDEADYYCGADDSGGYVFGGGTQLTVTG | no binding (tested: 10000 ng/ml) | no binding (tested: 10000 ng/ml)
Antibody MM11 (antibody, mouse IgG1, kappa, V domains shown, Mouse monoclonal antibody from hybridoma; also called Nectin-4 mouse monoclonal antibody MM11; mouse antibody MM11) VH: DVQLQESGPGLVKPSQSLSLTCSVTGYSITSNFYWNWIRQFPGNRLEWMGYISYDGSNNYNPSLKNRISISRDTSKNQFFLKLNSVTTEDTATYYCVRADYWGQGTLVTVSA VL: DTVMTQTPLSLPVSLGDQASISCRSSQSLESSDGHAYLNWYLQKPGQSPQLLIYRVSNRFSGVLHRFSGSGSGTDFTLKISRVEAEDLGVYFCLQFTHVPFTFGSGTKLEIKR | no binding (tested: 10000 ng/ml) | no binding (tested: 10000 ng/ml)

Reference: patent US20260265354A1 (JIANGSU MABWELL HEALTH PHARMACEUTICAL R AND D, published 2026)
